Data as given in patent publication US20250289873A1 (published 2025).
Residue numbers refer to the chain shown, from its start.

B1: ATX-P-574 (antibody, V domains shown)
VH: EVQLVESGGGLVQRGGSLRLSCVASGFTFSSYAMSWVRQAPGKGLEWVSVISGSGGTTYYADSVKGRFTISRDDSKKTLYLQMNSLRAEDTAVYYCAKRGDYGDYMDVWGKGTTVTVSS
VL: DIQMTQSPSSVSASVGDRVTITCRASQGITTWLAWYQQKPGKAPKLLIFGASSLESGVPSRFSGSGSGTDFTLTISSLQPEDFATYYCQQANSFPWTFGQGTKVEIKR
B2: ATX-P-560 (antibody, V domains shown)
VH: QVQLQQSGPGLVKPSQTLSLTCAISGDSVSSNTAAWNWIRQSPSRGLEWLGRTYYRSKWYNDYAVSVKSRITINPDTSKNQFSLQLSSVTPQDTAIYYCASDNWNNGGPGFDPWGQGTLVTVSS
VL: B1 VL with A13T, T30S, T31S, F49S, G50A, E55Q, S77T, T85S, W96P, K103R
B3: ATX-P-576 (antibody, V domains shown)
VH: EVQLVESGGGLVQPGRSLRLSCTASGFTFDDYEMHWVRQAPGKGLEWVSDISRNSGRIGYADSVKGRFTISRDNAKNSLYLQMNSLRAEDTALYYCAKDIWGSGYFDYWGQGILVTVSS
VL: B1 VL with A25T, T30R, T31N, F49Y, G50A, E55Q, S56T, V58G, W96Y, V104L
B4: ATX-P-573 (antibody, V domains shown)
VH: QVQLQQSGPGLVKPSQTLSLTCAISGDSVSSNSAAWNWIRQSPSRGLEWLGRTYYRSKLYSDYAVSVKSRITINPDTSRNQFSLQLNSVTPEDTAVYYCAREGGYTYGYDYWGQGTLVTVSS
VL: B1 VL with T30S, T31S, L46V, F49Y, G50A, E55Q, W96P, Q100P, E105D
B5: ATX-P-562 (antibody, V domains shown)
VH: QVQLQQSGPGLVKSSQTLSLTCAISGDTVSSNSAAWNWIRQSPSRGLEWLGRTFYRSRWSAAYAASVSSRITINPDTSKNQFSLQLTSVTPADTAVYYCAREGVGSSTGFDYWGQGTLVTVSS
VL: B1 VL with V15I, Q27K, T30S, T31I, L46V, F49S, G50A, E55Q, V58A, W96P
B6: ATX-P-581 (antibody, V domains shown)
VH: B4 VH with S33N, L59W, S61N, D62A, T72I, T106I, Y109L, Y111Q
VL: B1 VL with I29V, T30N, T31N, F49H, G50A, E55L, S76T, W96I, K103R, V104L
B7: ATX-P-561 (antibody, V domains shown)
VH: QVQLQQSGPGLVKPSQTLSLTCAISGDSVSSNSAAWNWIRQSPSRGLEWLGRTYYRSKWYNGYAVSMKSRITINPDTSKNQFSLQLNSVTPEDTAMYYCAREGVGATTGFDYWGQGTLVTVSS
VL: B1 VL with V11L, T30S, T31S, A34T, F49Y, G50A, E55Q, S56G, W96P
B8: ATX-P-607 (antibody, V domains shown)
VH: QVQLVQSGAEVKKPGASVKVSCKASGYTFTSYYMHWVRQAPGQGLEWMGIINPSGGSTSYAQKFQGRVTMTRDTSTNTVYMELSSLRSEDTAVYYCARDPEYSSAFDIWGQGTMVTVSS
VL: DIQMTQSPSSLSASVGDRGTITCRASQSIRSYLNWYQQKPGKAPKLLIYAASSLQSGVPSRFSGSGSGTDFTLTISSLQPEDFATYYCQQSYRTPVTFGPGTKVDIKR
B9: ATX-P-588 (antibody, V domains shown)
VH: EVQLVESGGGLVQPGRSLRLSCAASGFTFEDYAMHWVRQAPGKGLEWVSGISWNSGSIGYADSVKGRFTISRDNAKKSLYLQMNSLRAEDTALYYCTKDRDDGYNYAGVFDYWGQGTLVTVSS
VL: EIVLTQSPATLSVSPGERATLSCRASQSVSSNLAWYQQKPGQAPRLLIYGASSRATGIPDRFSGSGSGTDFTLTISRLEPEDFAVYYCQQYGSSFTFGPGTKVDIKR
B10: ATX-P-565 (antibody, V domains shown)
VH: QVQLVESGGGVVQPGRSLRLSCAASGFTFNTYGIHWVRQAPGKGLEWVAVIWHDGSSKNYVDSVTGRFTISRDNSKNTVYLQMNSLRAEDTAVYYCARRGNWNYGFYYYYMDVWGKGTTVTVSS
VL: DIVMTQSPLSLPVTPGEPASISCRSSQRLLHSSGYNYLDWYLQKPGQSPQLLIYLGSSRASGVPDRFSGSGSGTDFTLKISRVEAEDVGVYYCMQGLQTPPTFGQGTKVEIKR
B11: ATX-P-609 (antibody, V domains shown)
VH: QVQLQESGPGLVKPSGTLSLTCAVSGGSISSSNWWSWVRQPPGKGLEWIGEIYHSGSTNYNPSLKSRVTISVDKSKNQFSLKLRSVTAADTAVYYCARDQLSSGPTDAFDIWGQGTMVTVSS
VL: EIVMTQSPATLSVSPGERATLSCRASQSVSSNLAWYQQKPGQAPRLLIYGASTRATGIPVRFSGSGSGTQFTLTISSLQSEDFAVYYCQQYDNWRTFGQGTKLEIKR
B12: ATX-P-608 (antibody, V domains shown)
VH: QVQLQESGPGLVKPSGTLSLTCAVSGGSISSSNWWSWVRQSPGKGLEWIGEIYHTGSTNKKPSLKSRVIISVDKSKNQFSLKLISVNAADTAIYYCARDREGGTTEAFDIWGQGTMVTVSS
VL: B11 VL with K102R
B13: ATX-P-604 (antibody, V domains shown)
VH: QVQLQQSGPGLVKPTQTLSLTCAISGDSVSSNSAAWNWIRQSPSRGLEWLGRTYYRSKWFNGYAVSVKSRITINPDASKNQFSLHLKSVTDEDTAVYYCATDRGELLHWYFDLWGRGTLVTVSS
VL: EIVLTQSPDTLSLSPGERATLSCRASQTIRSSYLAWYQLKPGQAPRLLIYGASSRATGIPDRFSGSGSGTDFTLSISRLEPEDFAVYYCQQYGRSIIFGGGTKVEIKR
B14: ATX-P-602 (antibody, V domains shown)
VH: not shown
VL: EIVLTQSPGTLSLSPGERATLSCRASQSVSSSYLAWYQQKPGQAPRLLIYGASSRATGIPDRFSGSGSGTQFTLTISSLQSEDFAVYYCQQYGSSPWTFGQGTKVDIKR
B15: ATX-P-570 (antibody, V domains shown)
VH: QVQLQESGPGLVKPSETMSLTCTVSGGSFTGYYWSWIRQPPGKGLEWIGYVHYSGGTKSNPSLKSRVTISVDTSKNQFSLKLSSVTAADTAVYYCARERYEWNSYFDYWGQGTLVTVSS
VL: not shown
B16: ATX-P-572 (antibody, V domains shown)
VH: QVQLQQSGPGLVKPSQTLSLTCAISGDSVSSNSAAWNWIRQSPSRGLEWLGMTYYRSKWYSVFAVSVKSRITINTDTSKNQFSLQLNSVTPEDTAVYYCAREGGIVGATPFDYWGQGTLVTVSS
VL: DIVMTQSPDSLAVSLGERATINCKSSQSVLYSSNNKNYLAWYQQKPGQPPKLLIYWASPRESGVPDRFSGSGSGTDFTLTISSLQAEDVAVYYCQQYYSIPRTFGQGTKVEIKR
B17: ATX-P-568 (antibody, V domains shown)
VH: EVQLVESGGGLVQPGGSLRLSCAASGFPFSSYVMSWVRQAPGKGLEWVSVISVSGGSTFYADSVRGRFTISRDNSKNTLYLQVYSLRAEDTAVYYCAKDGLAVAGFDHWGQGTLVTVSS
VL: DIQMTQSPSTLSASVGDRVTITCRASQSISTWLAWYQQKPGKAPKLLIHKASGLESGVPSRFSGSGSGTEFTLTISSLQPDDFATYYCQQYNSFSLIFGGGTRVEIKR
B18: ATX-P-578 (antibody, V domains shown)
VH: EVQLVESGGGLVQPGGSLRLSCAASGFTFSRYSMNWVRQAPGKGLEWVSYISSSSSTIFHADSVKGRFTISRDNAKNSLYLQMNSLRDEDTAVYYCARGNWNYYYMDVWGKGTTVTVSS
VL: DIQMTQSPSTLSASVGDRVTISCRASQSVNSWLAWYQQKPGKAPKLLIYKASNLEGGVPSSFSGSGSGTEFTLTISSLQPDDFATYYCQQYDTSWTFGQGTKVEIKR
B19: ATX-P-601 (antibody, V domains shown)
VH: QVQLVQSGAEVKKPGASVKVSCKASGYTFTSYYMHWVRQAPGQGLEWMGIINPSGGSTNYAQKFQGRLTMTRDTSTNTVYMELSSLRSEDTAVYYCATDQSGGMDVWGKGTTVTVSS
VL: DIQMTQSPSSLSASVGDRVTITCRASQSINIYLNWYQQKPEKDPKLLIYAASSLQSGVPSRFSGSGSGTDFTLTISNLQPEDFATYYCQQSYSTPITFGQGTRLEIKR
B20: ATX-P-579 (antibody, V domains shown)
VH: QVQLQESGPGLVKPSGTLSLTCAVSGASISTSNWWTWVRQPPGKGLEWIGEIYHDGSTNYSPSLQSRVTISVDKSKNQFSLTLTSVTAADTAIYYCGDFYIDVWGNGTTVTVSS
VL: DIQMTQSPSSLSASVGDRVTITCRASQGIRKDLGWYQQKPGKAPKRLIYTASTLQSGVPSRFSGSGSGTEFTLTISSLQPEDFATYYCLQYNNYPFTFGPGTKVDIKR
B21: ATX-P-580 (antibody, V domains shown)
VH: QVQLQESGPGLVKPSGTLSLTCAVSGGSISTSDWWTWVRQPPGKGLEWIGEIYHSGSTNYNPSLKSRVTISVDKSKNQFSLKLSSVTAADTAVYYCADWYFDLWGRGTLVTVSS
VL: B20 VL with K31N, T50A, T53S, T74A, Q90H, Y91F, N93S
B22: ATX-P-571 (antibody, V domains shown)
VH: QVQLQESGPGLVKPSGTLSLTCAVSGGSISSRNWWSWVRQPPGKGLEWIGEIYHGGTTNYNPSLKSRVTISVDKSKNQFSLKLSSVTAADTAVYYCARGGLRLGELSPNAFDIWGQGTMVTVSS
VL: DIQMTQSPSSLSASVGDRVTITCRASQSISSYLNWYQQKPGKAPKVLIYAASSLQSGIPSRFSGSGSGTDFTLTISSLQPEDFATYYCQETYSVPLTFGGGTKVEIKR
B23: ATX-P-597 (antibody, V domains shown)
VH: QVQLVQSGAEVKKPGASVKVSCKASGYTFTNYYMQWVRQAPGQGLEWLGIIDPSGGSTTYAQKFQGRVTMTRDTSTSTVHMELRSLRSEDTAVYYCARDEGTDRPGWGYWGQGTLVTVSS
VL: B8 VL with V15I, G19V, R30S, N34D, Q38R, P40S, R93S, V96L, P100G
B24: ATX-P-583 (antibody, V domains shown)
VH: QVQLVQSGAEVKKPGASVKVSCKASGYTFTTYGISWVRQAPGQGLEWMGWISAYSGNTHYAQSLQDRVTMTTDTSTSTAYMEVRSLRSDDTAVYYCAKDEGYCSSTGCLNLFDPWGQGTLVTVSS
VL: DIQMTQSPSSLSASVGDRVTITCRASQNIGSYLNWYQQKPGNAPKLLIYATSTLQSGVPSRFSGSGSGTDFTLIISSLHPEDFTVYYCQQSFIIPFTFGPGTKVDIKR

The binders below were run against hCFHR4 (assay: SPR kinetics).

Binder | Kd [nM]
B1 | 5.9
B2 | 2.12
B3 | 0.9
B4 | 23
B5 | 0.487
B6 | 9.65
B7 | 31.9
B8 | 7.97
B9 | 6.87
B10 | 6.9
B11 | 4.98
B12 | 0.347
B13 | 0.222
B14 | 33
B15 | 10.5
B16 | 1.5
B17 | 1.62
B18 | 25
B19 | 18.2
B20 | 1.46
B21 | 31.9
B22 | 27.4
B23 | 0.168
B24 | 0.317
